One data set deals with melanocytes. Kind of data set: Time lapse cell migration. The settings on record: 6 movies per sample, preliminary. Type of data set: cell-based.
For data set [1], the system named is C2.7 mice myoblasts cells. Kind of data set: Cell adhesion kinetics on fibronectin-coated surfaces. Type of data set: cell-based. The protocol:
C2.7 mice myoblasts cells were seeded at 2.5×10^5 cells in a 10 cm cell culture petri dish (TPP). Cells were transfected with 15 μg of pcDNA3.1 NT GFP-A483 plasmid, with 45 μL JetPEI transfection reagent (Polyplus) overnight following manufacturer's recommendations. Control and transfected cells were detached and washed in a large volume of DMEM/Hepes (ref. 21063-045, Life Technologies) with 0.2% BSA and 50 ng/mL LPA (ref. L7260, Sigma-Aldrich) without FCS. Some 15,000 control/IpaA cells per well were seeded (DMEM/BSA/LPA, no FCS) in 24-well plates added with 5 mm rounded coverslips coated with 25 μg/mL fibronectin and blocked with 2% BSA-PBS 1×. Plates containing cells were centrifuged at 1000 g for 2 minutes, incubated at 37° C. and fixed (3.7% PFA-PBS) at different time points. Coverslips were stained with an anti-vinculin antibody+Phalloidin as described before (Immunostaining) or with a solution containing 1/200 DAPI (1 mg/mL) for number-of-cells adhesion tests. All coverslips were washed and mounted on slides using Dako mounting medium (Invitrogen) and observed using a confocal microscopy with rotary discs (Roper Scientific®).
To confirm this latter result at the scale of a whole cell population, we performed assays where cells, resuspended by trypsinization, were allowed to adhere for define amounts of time on Fn-coated substrates before washing. Then the number of cells that remained attached to the substrate was measured.

A further data set deals with C2.7 myoblastic cells. As to the kind of experiment: Plating on fibronectin-coated PDMS membranes of different stiffness. Type of data set: cell-based. The note with it: substrate stiffness 1.5 kPa and 15 kPa. The protocol: As previously observed, A483 induced the formation of large adhesion structures in C2.7 cells (FIG. 20A). While A483 transfectants induced a spectacular 5.6-fold increase in the number of adherent cells after 60 seconds of incubation, this increase was reduced to 1.3-fold when adhesion was tested after 30 min. These findings were quantified by measuring the resistance to shear stress of cells under flow as a function of the incubation time with the substrate in microfluidic chambers (FIG. 20B). Thus, through its direct binding via IpaA VBS3/TBS or indirect unveiling of binding sites on vinculin “supra-activated”, A483 may “by-pass” mechanosensing normally associated with the initial steps of cell adhesions' formation. While we cannot rule out the possibility that A483 induces an original ex-nihilo adhesion structure, our current results rather argue that it allows the bypassing of actomyosin-dependent mechanosensing steps that would lead to vinculin supra-activation at high actomyosin contraction forces. To further test this, we plated the C2.7 myoblastic cells on various fibronectin-coated PDMS membranes showing different stiffness. As expected, at low substrate stiffness (1.5 kPa), control cells remained spread and isolated, whereas at high substrate stiffness (15 kPa), cells differentiated into myotubes (FIG. 20C).

The next data set concerns MEF cells. Kind of data set: TIRF microscopy of focal adhesion markers after ROCK inhibitor Y-27632. Type of data set: cell-based. The settings on record: Paxillin, Vinculin, VASP; after Rho-kinase inhibitor Y-27632; preliminary. The text has this:
FIG. 21 is a set of images showing that IpaA prevents the disassembly of focal adhesions induced by the relaxation of the actomyosin contraction. MEF cells were transfected with focal adhesion proteins Paxillin-Cherry (PAX), Vinculin-Cherry (VIN) or VASP-Cherry (VASP). CTRL: single transfection; A483: cells were co-transfected with GFP-A483. The intensity of focal adhesion proteins (visualized as white dots) is shown at the indicated time points in seconds after the addition of the ROCK inhibitor Y-27632 by TIRF microscopy. A483 prevents the destabilization of FA markers induced by the ROCK inhibitor observed in control cells.
In preliminary experiments, we have analyzed the role of actomyosin contraction on the recruitment of FA markers linked to the supra-activation of vinculin, by treating cells with the Rho-kinase inhibitor Y-27632. The disappearance of markers from FAs was analyzed following in real-time using total internal reflection (TIRF) microscopy. […] Strikingly, VASP, a marker of mature FAs, was also stabilized by A483, while previous studies had shown that this FA marker was not stabilized by active vinculin, deficient for head-tail intra-molecular interaction.

The nature of data set [2]: Size exclusion chromatography, hydrodynamic radius. It is filed as physicochemical. The note with it: for Radiusm (estimated hydrodynamic radius): SEC Superdex 75, 20 μM equimolar. The protocol:
The purified proteins HVD1, A483, A524 and Talin H1-H4 were used at an equimolar concentration of 20 μM and incubated at 4° C. for one hour in binding buffer. The protein mixtures (200 μL) were injected in a FPLC chromatography system (FPLC Pharmacia) at 16° C. in a Superdex 75 HR 10/30 column (GE Healthcare) previously equilibrated with 10 volumes of binding buffer. The SEC system was calibrated with a Low Molecular Weight Gel Filtration Kit (ref. 17-0442-01, GE Healthcare) and the hydrodynamic radius (Angstroms) of the reference proteins (BSA, OVA, ChyA and RibA) correlated with the elution volume (Ve) using an Euler exponential equation: Hydrodynamic radius (Ang)=210.46 e^−0.189 Ve (mL), with a correlation squared coefficient of R^2=0.9973. Fractions corresponding to elution volume 8-10 mLs were recovered, and analyzed by SDS-PAGE using 15% polyacrylamide gels.

Data set [3] relates to C2.7 mice myoblasts cells. As to the kind of experiment: Immunostaining of focal adhesions in transfected cells. Type of data set: cell-based. The settings on record: cells plated for 16 hours. The protocol: C2.7 mice myoblasts cells were seeded at 2.5×10^4 cells in 5 mm rounded cell culture coverslips. Cells were transfected with 3 μg of pcDNA3.1 NT GFP-A483 plasmid, with 6 μL JetPEI transfection reagent (Polyplus) overnight following manufacturer's recommendations. Control and GFP-A483 transfected cells were fixed (3.7% PFA-PBS), permeabilized (0.1% Triton X-100, Sigma-Aldrich) and incubated with a 1/200 monoclonal m11.5 anti-vinculin antibody (ref. V4505, Sigma-Aldrich). Coverslips were washed and incubated with a 1/200 anti-mouse secondary antibody coupled to Alexa 546 (Jackson Research) and 1/200 Phalloidin A633 (Invitrogen), washed and mounted on slides using Dako mounting medium (Invitrogen). Samples were observed using a confocal microscopy with rotary disc (Roper Scientific®). Peripheral and ventral focal adhesion sizes (vinculin) were separated in three different categories (Small/None, Medium and Large) and the size of their focal adherences scored from three independent experiments. The focal adhesion size's distributions between the control and GFP-A483 transfected cells were compared using a Pearson's Chi-squared test.

Data on 2 molecules can be found in patent publication US11040083B2, “Polypeptides comprising vinculin binding sites for the treatment of proliferation and/or adhesion related diseases” (PARIS SCIENCES ET LETTRES—QUARTIER LATIN, priority 2015, dated 2021).

“And” between values parts separate entries of the source, which are not always exact repeats. Equal entries are not always repeated.

B1: A483: amino acids 483 to 633 of SEQ ID NO: 1 (IpaA), containing IpaA VBS1, VBS2 and VBS3 (protein, listed as Shigella flexneri)
chain: GDTYLTRETIFEASKKVTNSLSNLISLIGTKSGTQERELQEKSKDITKSTTEHRINNKLKVTDANIRNYVTETNADTIDKNHAIYEKAKEVSSALSKVLSKIDDTSAELLTDDISDLKNNNDITAENNNIYKAAKDVTTSLSKVLKNINKD
modifications: A483 / IpaA (483-633)
In the case of B1, the “effect on cell migration / motility” value with melanocytes is given as “strong effect on cell migration”. The “increase in the number of adherent cells” value in data set [1] (adhesion tested after 30 min) is 1.3 fold. The “increase in the number of adherent cells” value in data set [1] (after 60 seconds of incubation) was 5.6 fold. Further, in the data set with C2.7 myoblastic cells, the myotube formation result is listed as “formed myotubes not only at high, but also at low substrate stiffness”. Besides, the “stabilization of FA markers” value in the data set on MEF cells was “stabilization of all FA markers studied”. Besides, in data set [2], the “Radiusg (hydrodynamic radius of a globular protein with the same MW)” value amounted to 17.99 Ang; the “Radiusm/Radiusg (RH/RG ratio)” value was 1.83 and 1.80; the “Radiusm (estimated hydrodynamic radius)” value is reported as 32.86 Ang.

B2: A524: IpaA 524-633, containing only IpaA VBS1 and VBS2 (protein, listed as Shigella flexneri)
chain: KSKDITKSTTEHRINNKLKVTDANIRNYVTETNADTIDKNHAIYEKAKEVSSALSKVLSKIDDTSAELLTDDISDLKNNNDITAENNNIYKAAKDVTTSLSKVLKNINKD
modifications: A524 / IpaA (524-633)
notes: IpaA 524-633, containing only IpaA VBS1 and VBS2
As for B2, the “focal adhesions (FA) in transfected cells” value in data set [3] is recorded as “not observed”. Further, in data set [2], the “Radiusg (hydrodynamic radius of a globular protein with the same MW)” value is 15.36 Ang, the “Radiusm/Radiusg (RH/RG ratio)” value came to 1.88 and the “Radiusm (estimated hydrodynamic radius)” value is on record as 28.93 Ang.
